Data on 2 molecules can be found in patent publication US20250277767A1.

Test [1] addresses peptide #49+50 (combined sequences of peptides #49 and #50) (Enteropathogenic Escherichia coli (EPEC)). The test is described as follows: ELISA, plate coated with peptide #49+50, serially diluted mAb.
Test [2] deals with peptide #49 (cyclic EspB peptide, positions 193-207) (Enteropathogenic Escherichia coli (EPEC)). Put plainly: ELISA, plate coated with peptide #49, serially diluted mAb.
Test [3] concerns the target peptide #50 (cyclic EspB peptide, positions 197-211) (Enteropathogenic Escherichia coli (EPEC)). The test is described as follows: ELISA, plate coated with peptide #50, serially diluted mAb. (An ELISA detects its analyte on a solid surface through an enzyme-linked reagent.)

Take CTSAQKASQVAEEAADAAQEC (modifications not checked) [peptide #49+50 (combined sequences of peptides #49 and #50)]: the IC50 (read off the curve) in the test with mAb-EspB-B7 came out at 2 µg/mL.

B1: mAb-EspB-B7 (antibody, V domains shown)
VH: EVQLLESGGGLVQPGGSLRLSCAASGFTFSHYAMNWVRQAPGKGLEWVSAINSNGDSTYYPDTVKDRFTISRDNSKNTLYLQMNSLRAEDTAVYYCARDRRAGYFDYWGQGTLVTVSS
VL: DIVLTQPPSASGTPGQRVTISCSGSRDNIGKNYVSWYQQLPGTAPKLLIYRNNQRPSGVPDRFSGSKSGTSASLAISGLRSEDEADYYCSAWDTSLNAYVFGPGTQLTVL
A word on the EC50 (read off the curve): it is the midpoint of the concentration-response curve. For the molecule B1, the EC50 (read off the curve) turned out to be 0.3 µg/mL in test [1], 0.5 µg/mL in test [2] and 0.5 µg/mL in test [3].
